B1: Mitochondrial intermembrane space import and assembly protein 40 (Saccharomyces cerevisiae), P36046 (parent)
chain: MLRNLVVRNACRNRPSIQVARGLCRHQTRRLMASSPQFGRNSNQEKTAGFIMGILSMAGALYFIAPNRKPLFASRKVESDKTAEEELSSGGEQSPENEDDNNSKSDENGDDNDSKNDETEAGPQLGGDKIGASKVAEDGELVVLAEEDNKSSEDKDTDESKVSTKDDEQSNEDNATANNQKDENISSENSEENTSDKTLDNNAGSSEKKDPEHSDDEKSQQGQSDDKTTTEDNNGEEESSKKTVSDSENSAKQSESSDEEKEELRKQEEKQMGPTEEEVQHEGAYNPDTGEINWDCPCLGGMAHGPCGEEFKSAFSCFVYSEAEPKGIDCVEKFQHMQDCFRKYPEHYAEQLKETSDDEEPQDKVKVNTIESAPNVSSAKENAAKKAEQSDVKKEPLNEESKP
partner: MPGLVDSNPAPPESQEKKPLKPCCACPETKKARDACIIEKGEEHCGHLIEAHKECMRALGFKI
B2: Mitochondrial intermembrane space import and assembly protein 40 (Saccharomyces cerevisiae), P36046 (parent)
chain: B1 chain
partner: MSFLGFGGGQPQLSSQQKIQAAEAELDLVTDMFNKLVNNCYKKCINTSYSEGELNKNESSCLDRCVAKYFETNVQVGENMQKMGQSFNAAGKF

The variants in one assay derive from B1. The settings on record: with cox17_human COX17, Q14061.
In the case of C298S, the “effect of a mutation on the interaction” value is reported as “decreasing interaction”. Still for that read-out and setting: in the case of C296S;C298S it was “disrupting interaction”.

Variants of B2 are the subject of a further assay. The settings on record: with tim10_yeast TIM10, P87108.
Turning to C298S, the “effect of a mutation on the interaction” value is on record as “decreasing interaction”. On to C296S;C298S, for which the “effect of a mutation on the interaction” value is listed as “disrupting interaction”.

Values taken from IntAct's records for PubMed 19182799.
